Source: US20250164508A1, “G-PROTEIN COUPLED RECEPTOR ASSAY” (The Regents of the University of Michigan, priority 2022, published 2025)
Square brackets hold non-standard residues; d marks the D form. Ends that are not written are not given here. Cha = N[C@@H](CC1CCCCC1)C(=O)O

Assays:
[1] = biological target: MOR-SmBit (Mu-opioid receptor with SmBit attached to the C-terminus) (UniProt P35372); experiment: in-solution split NANOLUC complementation, separately expressed components, with and without loperamide
[2] = biological target: MOR-SmBit (Mu-opioid receptor with SmBit attached to the C-terminus) (UniProt P35372); experiment: in-solution split NANOLUC complementation, co-expressed components, with and without loperamide
[3] = biological target: β2-adrenergic Receptor (β2AR) (Homo sapiens, UniProt P07550); experiment: β2AR IGNiTR assay (β2AR-LgBiT cell lysate with SmBiT conformation-specific binder); conditions: SmBiT-Gs peptidomimetic fusion peptides with β2AR-LgBiT
[4] = biological target: Melanocortin-4 Receptor (MC4R) (Homo sapiens, UniProt P32245); experiment: MC4R IGNiTR assay; conditions: Gs fusion peptide 2 μM; drug 10 μM
[5] = biological target: μ-opioid receptor (μ-OR) (Homo sapiens, UniProt P35372); experiment: μ-OR IGNiTR assay with Gi fusion peptide
[6] = biological target: T1, MOR (Homo sapiens, UniProt P35372); format: biochemical; conditions: peptidomimetic 35 uM and 28 uM
T1 construct: made in house; host or cells: HEK293 adhesion cells (general method)

[7] = biological target: B2AR-SmBit (beta-2-adrenergic receptor fused to the SmBit fragment of split NANOLUC) (UniProt P07550); experiment: in-solution split NANOLUC complementation, detergent-extracted B2AR mixed with nanobody lysate, with and without isoproterenol

Sequence of μ-opioid receptor (μ-OR) (P35372 whole entry, the tested form may be a part): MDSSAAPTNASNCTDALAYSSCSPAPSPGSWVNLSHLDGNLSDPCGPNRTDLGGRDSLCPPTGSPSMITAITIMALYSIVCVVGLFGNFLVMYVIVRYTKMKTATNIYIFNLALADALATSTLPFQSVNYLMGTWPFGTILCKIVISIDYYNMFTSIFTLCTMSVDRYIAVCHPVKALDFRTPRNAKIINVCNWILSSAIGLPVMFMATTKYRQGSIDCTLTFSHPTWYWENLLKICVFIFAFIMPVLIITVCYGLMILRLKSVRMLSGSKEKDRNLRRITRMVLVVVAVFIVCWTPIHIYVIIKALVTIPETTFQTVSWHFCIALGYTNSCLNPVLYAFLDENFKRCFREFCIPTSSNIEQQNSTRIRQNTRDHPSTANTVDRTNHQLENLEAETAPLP
Sequence of MOR-SmBit (Mu-opioid receptor with SmBit attached to the C-terminus) (P35372 1-400, tags or fused parts left off): as the sequence (P35372 whole entry, the tested form may be a part) above
T1 sequence (P35372 whole entry): as the sequence (P35372 whole entry, the tested form may be a part) above
Sequence of Melanocortin-4 Receptor (MC4R) (P32245 whole entry, species assumed, the tested form may be a part): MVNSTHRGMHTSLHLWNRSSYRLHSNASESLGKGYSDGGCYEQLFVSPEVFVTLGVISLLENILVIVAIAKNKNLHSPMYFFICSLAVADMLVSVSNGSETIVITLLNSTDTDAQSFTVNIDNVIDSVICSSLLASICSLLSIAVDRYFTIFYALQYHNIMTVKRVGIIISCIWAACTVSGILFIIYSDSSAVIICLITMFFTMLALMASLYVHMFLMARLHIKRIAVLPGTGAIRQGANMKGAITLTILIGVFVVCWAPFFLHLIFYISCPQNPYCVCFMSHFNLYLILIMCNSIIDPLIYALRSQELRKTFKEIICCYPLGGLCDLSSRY

## Nb39-LgBit (Nb39 attached to LgBit on the C-terminus) (VHH)
[1]
  fold signal change between (+Lop) and (-Lop): 3.2 fold
[2]
  fold signal change between (+Lop) and (-Lop): 3.8 fold

## VTGYRLFEEILGSFNDCRDIIQRMHLRQYE-{Cha}-L (VTGYRLFEEILGSFNDCRDIIQRMHLRQYE[Cha]L) [Gs fusion peptide]
[3]
  agonist-dependent DDR: significant DDR
[3]; listed as peptide 2
  agonist-dependent DDR: showed agonist-dependent DDR
[4]
  DDR significance: significant DDRs

## VTGYRLFEEILGSKKKFDAVTDIIIKNNLKDCG[Cha]F [Gi fusion peptide]
[5]; 2 μM peptide, 0.5× μ-OR-LgBiT lysate, around 10 minutes
  DDR: ~4
[5]; Gi fusion peptide with μ-OR
  DDR significance: significant DDR
[6]
  binding to the MOR protein: successful binding

## VTGYRLFEEILGSKKKFN-C-SRD-C-IQRMHLRQYE-{Cha}-L [peptide 1]
[3]
  agonist-dependent DDR: did not demonstrate agonist-dependence

B1: Nb80-LgBit (Nanobody 80 fused to LgBit) (VHH, from another filing)
VHH: QVQLQESGGGLVQAGGSLRLSCAASGSIFSINTMGWYRQAPGKQRELVAAIHSGGSTNYANSVKGRFTISRDNAANTVYLQMNSLKPEDTAVYYCNVKDYGAVLYEYDYWGQGTQVTVSS
[7]
  fold signal change between (+Iso) and (-Iso): 1.9 fold
